# Square brackets hold non-standard residues; d marks the D form. Ends that are not written are not given here. * marks the point of attachment. 4‑methoxylbenzhydryl = COc1ccc(C(c2ccccc2)*)cc1; Biotin = O=C1N[C@H]2[C@H](CS[C@H]2CCCCC(=O)*)N1; 4‑chlorobenzhydryl = Clc1ccc(C(c2ccccc2)*)cc1; Bip = N[C@@H](Cc1ccc(-c2ccccc2)cc1)C(=O)O; dPhe(4-Br) = N[C@H](Cc1ccc(Br)cc1)C(=O)O; dPhe(4-Me) = Cc1ccc(C[C@@H](N)C(=O)O)cc1; Trt = c1ccc(C(c2ccccc2)(c2ccccc2)*)cc1; dPhe(4-F) = N[C@H](Cc1ccc(F)cc1)C(=O)O; Dmt = Cc1cc(O)cc(C)c1C[C@H](N)C(=O)O; Benzhydryl = c1ccc(C(c2ccccc2)*)cc1; Palmitoyl = CCCCCCCCCCCCCCCC(=O)*; Myristoyl = CCCCCCCCCCCCCC(=O)*; Lauroyl = CCCCCCCCCCCC(=O)*; Decanoyl = CCCCCCCCCC(=O)*; Octanoyl = CCCCCCCC(=O)*; SO3H = O=S(=O)(O)*; Bn = c1ccc(C*)cc1
# T1: GPR39 (Homo sapiens, UniProt O43194)
# T1 sequence (O43194 1-453): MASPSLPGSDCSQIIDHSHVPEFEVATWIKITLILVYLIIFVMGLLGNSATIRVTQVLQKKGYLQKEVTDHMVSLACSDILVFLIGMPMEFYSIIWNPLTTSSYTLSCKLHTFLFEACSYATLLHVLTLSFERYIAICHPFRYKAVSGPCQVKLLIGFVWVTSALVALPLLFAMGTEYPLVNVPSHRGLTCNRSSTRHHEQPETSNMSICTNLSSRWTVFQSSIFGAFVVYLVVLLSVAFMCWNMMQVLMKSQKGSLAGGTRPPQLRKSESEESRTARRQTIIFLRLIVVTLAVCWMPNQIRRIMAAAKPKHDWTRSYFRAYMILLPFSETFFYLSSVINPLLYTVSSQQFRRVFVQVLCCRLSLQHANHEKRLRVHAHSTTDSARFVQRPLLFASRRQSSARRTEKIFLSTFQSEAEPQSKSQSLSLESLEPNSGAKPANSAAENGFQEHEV
# T2: GPR39 (G protein coupled receptor 39) (UniProt O43194 1-453, limits assumed)
# T2 sequence (looked up): T1 sequence (O43194 1-453)
# B1: HKFY-36 (peptide)
# peptide: H(Benzhydryl)K(Octanoyl)[dPhe(4-Me)][Dmt]
# B2: HKFY-48 (peptide)
# peptide: H(Trt)K(Octanoyl)YY-OH
# B3: HKFY-40 (peptide)
# peptide: H(Trt)K(Octanoyl)FYSHQQARF
# modifications: not fully specified; printed as His(trt)-Lys(caprylic)-Phe-Tyr-Ser-His-Gln-Gln-Ala-Arg-Phe
# B4: HKFY-20 (peptide)
# peptide: H(4‑methoxylbenzhydryl)K(Octanoyl)FY
# B5: HKFY-41 (peptide)
# peptide: H(Trt)K(Octanoyl)FYQNGARF
# modifications: not fully specified (C-terminus)
# B6: HKFY-46 (peptide)
# peptide: H(Trt)K(Octanoyl)FW
# B7: HKFY-43 (peptide)
# peptide: H(Trt)K(Octanoyl)FYQNQARF
# modifications: also: C-terminal Phe amide in IUPAC name, not in sequence formula
# B8: HKFY-45 (peptide)
# peptide: Biotin-H(Trt)K(Octanoyl)[Bip]Y
# B9: HKFY-31 (peptide)
# peptide: [dH](Trt)K(Octanoyl)[dPhe(4-Me)]Y
# B10: HKFY-23 (peptide)
# peptide: HK(Octanoyl)FY
# modifications: not fully specified; also: His1 substituent: adamantan-1-yl or adamantanmethyl
# B11: HKFY-21 (peptide)
# peptide: H(4‑chlorobenzhydryl)K(Octanoyl)FY
# B12: HKFY-39 (peptide)
# peptide: H(Trt)K(Octanoyl)FYSQNGARF
# modifications: also: C-terminal amide in IUPAC name, not in sequence formula, .39 lacks Gln-Asn
# B13: HKFY-28 (peptide)
# peptide: H(Trt)K(Octanoyl)[dPhe(4-F)]Y-OH
# B14: HKFY-3 (peptide)
# peptide: H(Bn)K(Octanoyl)FY
# B15: HKFY-30 (peptide)
# peptide: H(Trt)K(Octanoyl)[dPhe(4-Me)]Y
# B16: HKFY-26 (peptide)
# peptide: H(Trt)K(Myristoyl)FY-OH
# B17: HKFY-27 (peptide)
# peptide: H(Trt)K(Palmitoyl)FY-OH
# B18: HKFY-47 (peptide)
# peptide: H(Trt)K(Octanoyl)YF-OH
# B19: HKFY-24 (peptide)
# peptide: H(Trt)K(Decanoyl)FY-OH
# B20: HKFY-29 (peptide)
# peptide: H(Trt)K(Octanoyl)[dPhe(4-Br)]Y-OH
# B21: HKFY-25 (peptide)
# peptide: H(Trt)K(Lauroyl)FY-OH
# B22: HKFY-42 (peptide)
# peptide: H(Trt)K(Octanoyl)FYHQQARF
# modifications: not fully specified; printed as His(trt)-Lys(caprylic)-Phe-Tyr-His-Gln-Gln-Ala-Arg-Phe
# B23: HKFY-19 (peptide)
# peptide: HK(Octanoyl)FY
# modifications: not fully specified; also: His1 substituent: phenethyl or phenylpropyl
# B24: HKFY-44 (peptide)
# peptide: H(Trt)K(Octanoyl)FYW
# B25: HKFY-38 (peptide)
# peptide: H(Trt)K(Octanoyl)FYSDQQARF
# modifications: not fully specified; printed as His(trt)-Lys(caprylic)-Phe-Tyr-Ser-Asp-Gln-Gln-Ala-Arg-Phe
# B26: HKFY-18 (peptide)
# peptide: H(Fm)K(Octanoyl)FY
# B27: HKFY-22 (peptide)
# peptide: H(4‑methylbenzhydryl)K(Octanoyl)FY
# B28: HKFY-32 (peptide)
# peptide: HK(Octanoyl)[dPhe(4-Me)]Y
# modifications: not fully specified (residue 1)
# B29: HKFY-4 (peptide)
# peptide: [dH](Trt)K(Octanoyl)FY
# B30: HKFY-35 (peptide)
# peptide: H(Benzhydryl)K(Octanoyl)[dPhe(4-Me)]Y(SO3H)
# B31: HKFY-33 (peptide)
# peptide: H(Benzhydryl)K(Octanoyl)FY
# B32: HKFY-37 (peptide)
# peptide: GSH(Trt)K(Octanoyl)FY
# B33: HKFY-17 (peptide)
# peptide: HK(Octanoyl)FY
# modifications: not fully specified (residue 1)
# B34: HKFY-49 (peptide)
# peptide: His(Trt)-Lys(Octanoyl)-Phe-OH
# Target: T1, GPR39
# Test: luciferase assay system (SRE luciferase reporter gene, CV-1 cells expressing GPR39)
# Type: cell-based
# Design: expressed in transfected cells; host or cells: CV-1 fibroblast cell line (Korea Cell Line Bank), adenoviral transduction at 50 MOI
row,Molecule,ECmax (−fold induction over basal) [fold induction over basal]
1,"CCCCCCCC(=O)NCCCC[C@H](NC(=O)[C@@H](N)Cc1cn(CCc2ccccc2)cn1)C(=O)N[C@@H](Cc1ccccc1)C(=O)N[C@@H](Cc1ccc(O)cc1)C(=O)O [HKFY-9, N6-octanoyl-N2-(Nt-phenethyl-L-histidyl)-L-lysyl-L-phenylalanyl-L-tyrosine]",21 ± 2.52

# Target: T2, GPR39 (G protein coupled receptor 39)
# Test: cell-based or functional assay
Molecule,EC50; SRE-luciferase reporter [µM],ECmax; SRE-luciferase reporter
B1,0.15,9.9 -fold induction over basal
B2,0.33,14.4 -fold induction over basal
B3,1.3,13.4 -fold induction over basal
B4,159,20.3 -fold induction over basal
B5,9.55,12.2 -fold induction over basal
B6,0.26,20 -fold induction over basal
B7,1.21,12.1 -fold induction over basal
B8,0.14,21 -fold induction over basal
B9,0.02,20.9 -fold induction over basal
B10,2.6,15 -fold induction over basal
B11,136,18.3 -fold induction over basal
B12,–,12.1 -fold induction over basal
B13,0.074,22.9 -fold induction over basal
B14,4.13,9.2 -fold induction over basal
B15,0.008,23.9 -fold induction over basal
B16,0.28,19.8 -fold induction over basal
B17,0.56,20.4 -fold induction over basal

Molecule,EC50; SRE-luciferase reporter [µM],ECmax; SRE-luciferase reporter
B18,0.3,13 -fold induction over basal
B19,0.24,7.03 -fold induction over basal
B20,0.31,26.8 -fold induction over basal
B21,0.63,7.72 -fold induction over basal
B22,1.58,11.8 -fold induction over basal
B23,24.6,18 -fold induction over basal
B24,0.37,20 -fold induction over basal
B25,3.5,16.5 -fold induction over basal
B26,2.29,10 -fold induction over basal
B27,59.8,21.3 -fold induction over basal
B28,0.002,21.5 -fold induction over basal
B29,0.13,16.8 -fold induction over basal
B30,0.28,18.9 -fold induction over basal
B31,0.15,20 -fold induction over basal
B32,1.84,16 -fold induction over basal
B33,8.12,20 -fold induction over basal
B34,0.32,18.3 -fold induction over basal
